Measured values from patent publication US20200179497A1 (HANSA BIOPHARMA, published 2020).

B1: pCART201 (enzyme)
chain: MSVWTKGVTPLTPEQFRYNNEDVIHAPYLAHQGWYDITKAFDGKDNLLCGAATAGNMLHWWFDQNKTEIEAYLSKHPEKQKIIFNNQELFDLKAAIDTKDSQTNSQLFNYFRDKAFPNLSARQLGVMPDLVLDMFINGYYLNVFKTQSTDVNRPYQDKDKRGGIFDAVFTRGDQTTLLTARHDLKNKGLNDISTIIKQELTEGRALALSHTYANVSISHVINLWGADFNAEGNLEAIYVTDSDANASIGMKKYFVGINAHGHVAISAKKIEGENIGAQVLGLFTLSSGKDIWQKLSGGGHHHHHH
B2: pCART203 (enzyme)
chain: MDDYQRNATEAYAKEVPHQITSVWTKGVTPPEQFTQGEDVIHAPYLAHQGWYDITKAFDGKDNLLCGAATAGNMLHWWFDQNKTEIEAYLSKHPEKQKIIFNNQELFDLKAAIDTKDSQTNSQLFNYFRDKAFPNLSARQLGVMPDLVLDMFINGYYLNVFKTQSTDVNRPYQDKDKRGGIFDAVFTRGDQTTLLTARHDLKNKGLNDISTIIKQELTEGRALALSHTYANVSISHVINLWGADFNAEGNLEAIYVTDSDANASIGMKKYFVGINAHGHVAISAKKIEGENIGAQVLGLFTLSSGKDIWQKLSGGGHHHHHH
B3: pCART197 (enzyme)
chain: MDDYQRNATEAYAKEVPHQITSVWTKGVTPLTPEQFRYNNEDVIHAPYLANQGWYDITKAFDGKDNLLCGAATAGNMLHWWFDQNKTEIEAYLSKHPEKQKIIFRNQELFDLKEAIRTKDSQTNSQLFEYFRDKAFPYLSARQLGVMPDLVLDMFINGYYLNVFKTQSTDVKRPYQDKDKRGGIFDAVFTRGNQTTLLTARHDLKNKGLNDISTIIKEELTKGRALALSHTYANVSISHVINLWGADFNAEGNLEAIYVTDSDANASIGMKKYFVGINKHGHVAISAKKIEGENIGAQVLGLFTLSSGKDIWQKLNGGGHHHHHH

Legend:
[1] = target: rabbit anti-BSA (ACRIS, #R1048P); assay: cell-based or functional assay
denosumab (XGEVA) = assay: cell-based or functional assay

| Binder | pCART124 ratio (fold change in potency relative to IdeS), potency ELISA [1] [fold] | cleavage efficacy on SDS-PAGE, fold vs pCART144 (denosumab (XGEVA)) [fold] | pCART124 ratio, potency ELISA [1] [fold] |
| --- | --- | --- | --- |
| B1 | 8 |  |  |
| B2 |  | ~3 | ~3.5 |
| B3 | 8 |  |  |
